Literature values in publication PMC6197867.

Assays:
[1] = target: LEN light chain variable domain VL (Homo sapiens) (UniProt P06312)
[2] = target: SMA light chain variable domain VL (Homo sapiens) (UniProt P06312)

Kd [1] [µM] | Kd [2] [µM] | Substance
10 |  | LEN light chain variable domain VL (from UniProt P06312)
 | 40 | SMA light chain variable domain VL (from UniProt P06312)
